Experimental data published in US20210115092A1 (YEDA RESEARCH AND DEVELOPMENT, published 2021).

target: T1, Flag-Cas9 (wild-type, unmodified SpCas9) (Streptococcus pyogenes, UniProt Q99ZW2 2-1368); assay: co-immunoprecipitation, anti-Flag IP from transfected HEK293 extracts, immunoblot
T1 construct: expressed in HEK293; also called original Cas9; wt Cas9; not shown: Flag tag and N-terminal NLS of the vector; C-terminal NLS and what remains of the T2A peptide
T1 sequence (Q99ZW2 2-1368): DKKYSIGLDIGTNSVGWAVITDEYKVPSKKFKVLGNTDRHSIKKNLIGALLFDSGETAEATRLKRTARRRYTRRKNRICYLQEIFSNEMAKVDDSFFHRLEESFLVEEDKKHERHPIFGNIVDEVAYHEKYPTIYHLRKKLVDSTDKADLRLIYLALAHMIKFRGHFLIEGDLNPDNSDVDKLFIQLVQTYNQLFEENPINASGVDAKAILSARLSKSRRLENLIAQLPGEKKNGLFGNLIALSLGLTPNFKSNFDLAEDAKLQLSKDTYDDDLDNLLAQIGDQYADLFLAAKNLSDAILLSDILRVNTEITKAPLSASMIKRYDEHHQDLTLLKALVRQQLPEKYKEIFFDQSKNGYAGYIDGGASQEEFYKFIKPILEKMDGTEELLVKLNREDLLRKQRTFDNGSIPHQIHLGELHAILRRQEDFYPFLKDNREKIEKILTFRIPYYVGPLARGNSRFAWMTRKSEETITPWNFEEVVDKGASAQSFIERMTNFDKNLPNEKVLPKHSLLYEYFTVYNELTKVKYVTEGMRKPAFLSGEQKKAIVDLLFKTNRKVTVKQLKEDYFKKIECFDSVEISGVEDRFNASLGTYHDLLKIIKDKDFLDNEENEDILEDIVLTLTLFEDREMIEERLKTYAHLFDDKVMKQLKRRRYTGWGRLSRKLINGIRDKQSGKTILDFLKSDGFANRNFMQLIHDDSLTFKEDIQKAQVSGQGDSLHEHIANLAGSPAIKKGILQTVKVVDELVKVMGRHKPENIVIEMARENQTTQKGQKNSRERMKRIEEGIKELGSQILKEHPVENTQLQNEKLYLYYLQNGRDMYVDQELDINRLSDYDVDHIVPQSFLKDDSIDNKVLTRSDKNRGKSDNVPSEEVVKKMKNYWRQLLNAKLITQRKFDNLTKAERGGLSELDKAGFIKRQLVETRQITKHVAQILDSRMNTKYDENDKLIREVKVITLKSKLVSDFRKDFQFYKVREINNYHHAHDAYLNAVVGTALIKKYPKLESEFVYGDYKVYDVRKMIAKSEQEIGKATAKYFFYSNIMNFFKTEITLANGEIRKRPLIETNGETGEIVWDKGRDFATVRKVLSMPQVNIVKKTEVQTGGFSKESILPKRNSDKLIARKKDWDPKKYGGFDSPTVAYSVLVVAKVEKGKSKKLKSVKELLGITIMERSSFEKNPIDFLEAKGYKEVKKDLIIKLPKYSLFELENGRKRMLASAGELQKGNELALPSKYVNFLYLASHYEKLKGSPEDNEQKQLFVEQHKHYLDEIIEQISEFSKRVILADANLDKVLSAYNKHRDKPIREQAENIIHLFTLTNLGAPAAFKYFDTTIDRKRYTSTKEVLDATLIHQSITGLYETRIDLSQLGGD

Binder	binding result
DNA repair protein RAD50 (other) MSRIEKMSILGVRSFGIEDKDKQIITFFSPLTILVGPNGAGKTTIIECLKYICTGDFPPGTKGNTFVHDPKVAQETDVRAQIRLQFRDVNGELIAVQRSMVCTQKSKKTEFKTLEGVITRTKHGEKVSLSSKCAEIDREMISSLGVSKAVLNNVIFCHQEDSNWPLSEGKALKQKFDEIFSATRYIKALETLRQVRQTQGQKVKEYQMELKYLKQYKEKACEIRDQITSKEAQLTSSKEIVKSYENELDPLKNRLKEIEHNLSKIMKLDNEIKALDSRKKQMEKDNSELEEKMEKVFQGTDEQLNDLYHNHQRTVREKERKLVDCHRELEKLNKESRLLNQEKSELLVEQGRLQLQADRHQEHIRARDSLIQSLATQLELDGFERGPFSERQIKNFHKLVRERQEGEAKTANQLMNDFAEKETLKQKQIDEIRDKKTGLGRIIELKSEILSKKQNELKNVKYELQQLEGSSDRILELDQELIKAERELSKAEKNSNVETLKMEVISLQNEKADLDRTLRKLDQEMEQLNHHTTTRTQMEMLTKDKADKDEQIRKIKSRHSDELTSLLGYFPNKKQLEDWLHSKSKEINQTRDRLAKLNKELASSEQNKNHINNELKRKEEQLSSYEDKLFDVCGSQDFESDLDRLKEEIEKSSKQRAMLAGATAVYSQFITQLTDENQSCCPVCQRVFQTEAELQEVISDLQSKLRLAPDKLKSTESELKKKEKRRDEMLGLVPMRQSIIDLKEKEIPELRNKLQNVNRDIQRLKNDIEEQETLLGTIMPEEESAKVCLTDVTIMERFQMELKDVERKIAQQAAKLQGIDLDRTVQQVNQEKQEKQHKLDTVSSKIELNRKLIQDQQEQIQHLKSTTNELKSEKLQISTNLQRRQQLEEQTVELSTEVQSLYREIKDAKEQVSPLETTLEKFQQEKEELINKKNTSNKIAQDKLNDIKEKVKNIHGYMKDIENYIQDGKDDYKKQKETELNKVIAQLSECEKHKEKINEDMRLMRQDIDTQKIQERWLQDNLTLRKRNEELKEVEEERKQHLKEMGQMQVLQMKSEHQKLEENIDNIKRNHNLALGRQKGYEEEIIHFKKELREPQFRDAEEKYREMMIVMRTTELVNKDLDIYYKTLDQAIMKFHSMKMEEINKIIRDLWRSTYRGQDIEYIEIRSDADENVSASDKRRNYNYRVVMLKGDTALDMRGRCSAGQKVLASLIIRLALAETFCLNCGIIALDEPTTNLDRENIESLAHALVEIIKSRSQQRNFQLLVITHDEDFVELLGRSEYVEKFYRIKKNIDQCSEIVKCSVSSLGFNVH	no binding
Double-strand break repair protein MRE11A (enzyme) STADALDDENTFKILVATDIHLGFMEKDAVRGNDTFVTLDEILRLAQENEVDFILLGGDLFHENKPSRKTLHTCLELLRKYCMGDRPVQFEILSDQSVNFGFSKFPWVNYQDGNLNISIPVFSIHGNHDDPTGADALCALDILSCAGFVNHFGRSMSVEKIDISPVLLQKGSTKIALYGLGSIPDERLYRMFVNKKVTMLRPKEDENSWFNLFVIHQNRSKHGSTNFIPEQFLDDFIDLVIWGHEHECKIAPTKNEQQLFYISQPGSSVVTSLSPGEAVKKHVGLLRIKGRKMNMHKIPLHTVRQFFMEDIVLANHPDIFNPDNPKVTQAIQSFCLEKIEEMLENAERERLGNSHQPEKPLVRLRVDYSGGFEPFSVLRFSQKFVDRVANPKDIIHFFRHREQKEKTGEEINFGKLITKPSEGTTLRVEDLVKQYFQTAEKNVQLSLLTERGMGEAVQEFVDKEEKDAIEELVKYQLEKTQRFLKERHIDALEDKIDEEVRRFRETRQKNTNEEDDEVREAMTRARALRSQSEESASAFSADDLMSIDLAEQMANDSDDSISAATNKGRGRGRGRRGGRGQNSASRGGSQRGRADTGLETSTRSRNSKTAVSASRNMSIIDAFKSTRQQPSRNVTTKNYSEVIEVDESDVEEDIFPTTSKTDQRWSSTSSSKIMSQSQVSKGVDFESSEDDDDDPFMNTSSLRRNRR	no binding
Nibrin (other, also called Nbs1; NBN) MWKLLPAAGPAGGEPYRLLTGVEYVVGRKNCAILIENDQSISRNHAVLTANFSVTNLSQTDEIPVLTLKDNSKYGTFVNEEKMQNGFSRTLKSGDGITFGVFGSKFRIEYEPLVACSSCLDVSGKTALNQAILQLGGFTVNNWTEECTHLVMVSVKVTIKTICALICGRPIVKPEYFTEFLKAVESKKQPPQIESFYPPLDEPSIGSKNVDLSGRQERKQIFKGKTFIFLNAKQHKKLSSAVVFGGGEARLITEENEEEHNFFLAPGTCVVDTGITNSQTLIPDCQKKWIQSIMDMLQRQGLRPIPEAEIGLAVIFMTTKNYCDPQGHPSTGLKTTTPGPSLSQGVSVDEKLMPSAPVNTTTYVADTESEQADTWDLSERPKEIKVSKMEQKFRMLSQDAPTVKESCKTSSNNNSMVSNTLAKMRIPNYQLSPTKLPSINKSKDRASQQQQTNSIRNYFQPSTKKRERDEENQEMSSCKSARIETSCSLLEQTQPATPSLWKNKEQHLSENEPVDTNSDNNLFTDTDLKSIVKNSASKSHAAEKLRSNKKREMDDVAIEDEVLEQLFKDTKPELEIDVKVQKQEEDVNVRKRPRMDIETNDTFSDEAVPESSKISQENEIGKKRELKEDSLWSAKEISNNDKLQDDSEMLPKKLLLTEFRSLVIKNSTSRNPSGINDDYGQLKNFKKFKKVTYPGAGKLPHIIGGSDLIAHHARKNTELEEWLRQEMEVQNQHAKEESLADDLFRYNPYLKRRR	no binding
